Laboratory results as given in patent US20240301385, “DNA MODIFYING ENZYMES AND ACTIVE FRAGMENTS AND VARIANTS THEREOF AND METHODS OF USE” (LIFEEDIT THERAPEUTICS, INC., published 2024).

T1: APG30129-L32-nAPG07433.1 (synthetic)
T1 chain: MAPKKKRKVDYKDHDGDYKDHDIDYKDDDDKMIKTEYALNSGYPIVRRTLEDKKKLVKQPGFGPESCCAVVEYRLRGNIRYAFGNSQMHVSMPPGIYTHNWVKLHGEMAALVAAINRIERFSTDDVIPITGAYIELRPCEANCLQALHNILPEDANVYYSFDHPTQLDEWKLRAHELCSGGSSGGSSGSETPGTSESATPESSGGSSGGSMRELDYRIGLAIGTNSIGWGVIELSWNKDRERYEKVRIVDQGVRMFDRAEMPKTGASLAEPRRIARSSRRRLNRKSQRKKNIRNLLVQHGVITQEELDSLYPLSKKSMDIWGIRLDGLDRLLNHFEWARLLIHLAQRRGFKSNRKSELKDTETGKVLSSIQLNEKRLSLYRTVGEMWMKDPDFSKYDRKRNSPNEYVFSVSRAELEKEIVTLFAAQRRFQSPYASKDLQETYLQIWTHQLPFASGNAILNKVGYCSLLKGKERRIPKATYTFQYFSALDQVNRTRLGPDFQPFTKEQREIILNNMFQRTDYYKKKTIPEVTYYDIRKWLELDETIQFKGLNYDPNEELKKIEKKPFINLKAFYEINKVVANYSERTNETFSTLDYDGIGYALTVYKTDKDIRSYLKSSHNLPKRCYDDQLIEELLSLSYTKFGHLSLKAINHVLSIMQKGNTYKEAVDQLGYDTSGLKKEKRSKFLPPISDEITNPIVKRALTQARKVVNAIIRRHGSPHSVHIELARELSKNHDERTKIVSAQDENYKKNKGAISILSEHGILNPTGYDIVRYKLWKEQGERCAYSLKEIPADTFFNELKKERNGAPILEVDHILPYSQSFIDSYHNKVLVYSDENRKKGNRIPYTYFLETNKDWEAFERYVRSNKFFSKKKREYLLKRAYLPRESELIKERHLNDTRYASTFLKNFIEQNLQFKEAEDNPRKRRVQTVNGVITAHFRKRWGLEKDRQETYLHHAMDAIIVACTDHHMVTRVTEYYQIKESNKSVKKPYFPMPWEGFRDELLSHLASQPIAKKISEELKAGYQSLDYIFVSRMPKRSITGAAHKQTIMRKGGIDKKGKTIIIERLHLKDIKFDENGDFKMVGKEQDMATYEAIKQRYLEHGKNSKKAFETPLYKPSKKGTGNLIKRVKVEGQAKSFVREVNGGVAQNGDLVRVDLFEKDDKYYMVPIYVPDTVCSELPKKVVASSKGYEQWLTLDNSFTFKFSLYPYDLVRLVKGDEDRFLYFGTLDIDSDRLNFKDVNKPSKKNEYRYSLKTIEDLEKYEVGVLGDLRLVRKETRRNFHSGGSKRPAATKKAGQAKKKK

T2: APG00868.1-L16-nAPG07433.1 (truncated deaminase) (synthetic)
T2 chain: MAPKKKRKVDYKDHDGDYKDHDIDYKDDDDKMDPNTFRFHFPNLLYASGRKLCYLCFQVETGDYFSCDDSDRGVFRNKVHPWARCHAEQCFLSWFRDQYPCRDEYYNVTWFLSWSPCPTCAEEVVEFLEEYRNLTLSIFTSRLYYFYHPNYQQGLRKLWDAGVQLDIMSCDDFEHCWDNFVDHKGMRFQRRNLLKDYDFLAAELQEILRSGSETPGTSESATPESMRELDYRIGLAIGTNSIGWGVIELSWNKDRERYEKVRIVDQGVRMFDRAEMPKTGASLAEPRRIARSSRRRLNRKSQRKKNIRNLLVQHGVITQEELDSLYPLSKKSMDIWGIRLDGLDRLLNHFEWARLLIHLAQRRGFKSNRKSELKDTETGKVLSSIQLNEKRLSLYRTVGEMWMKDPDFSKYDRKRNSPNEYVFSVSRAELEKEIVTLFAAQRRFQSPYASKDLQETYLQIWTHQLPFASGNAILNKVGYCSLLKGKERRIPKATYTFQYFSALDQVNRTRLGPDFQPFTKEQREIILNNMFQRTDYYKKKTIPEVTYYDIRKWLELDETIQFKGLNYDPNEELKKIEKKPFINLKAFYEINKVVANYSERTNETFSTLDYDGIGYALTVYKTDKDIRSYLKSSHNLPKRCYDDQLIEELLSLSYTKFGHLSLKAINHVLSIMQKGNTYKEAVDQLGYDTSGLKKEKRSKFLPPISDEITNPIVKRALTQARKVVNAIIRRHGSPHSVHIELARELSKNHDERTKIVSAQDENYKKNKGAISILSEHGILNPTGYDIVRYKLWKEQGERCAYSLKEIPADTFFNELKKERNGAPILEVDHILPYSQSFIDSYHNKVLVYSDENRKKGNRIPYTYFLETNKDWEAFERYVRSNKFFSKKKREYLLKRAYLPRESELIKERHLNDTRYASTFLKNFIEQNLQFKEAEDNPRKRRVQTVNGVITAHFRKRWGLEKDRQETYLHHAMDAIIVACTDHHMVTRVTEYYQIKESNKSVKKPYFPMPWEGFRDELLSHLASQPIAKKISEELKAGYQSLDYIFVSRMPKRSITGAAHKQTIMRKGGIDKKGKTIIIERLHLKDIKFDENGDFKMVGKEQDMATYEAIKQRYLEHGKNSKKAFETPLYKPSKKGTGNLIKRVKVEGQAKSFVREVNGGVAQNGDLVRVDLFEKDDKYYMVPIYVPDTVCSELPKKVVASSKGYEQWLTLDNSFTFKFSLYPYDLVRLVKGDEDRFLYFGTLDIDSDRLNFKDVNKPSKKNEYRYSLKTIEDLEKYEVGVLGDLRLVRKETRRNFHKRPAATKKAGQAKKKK

B1: SGN000194 sgRNA ; SGN000194 target (ssRNA ; dsDNA)
RNA: GCCGCACAGCAUUCAGGUCGGUCAUAGUUCCAUUAAAGCCAAAAGUGGCUUUGAUGUUUCUAUGAUAAGGGUUUCGACCCGUGGCGUCGGGGAUCGCCUGCCCAUUGAAAUGGGCUUCUCCCCAUUUAUU
DNA 1: GCCGCACAGCATTCAGGTCG
DNA 2: CGACCTGAATGCTGTGCGGC
B2: SGN000930 sgRNA ; SGN000930 target (ssRNA ; dsDNA)
RNA: GAACAACUCAAAUGGAAAUGAAUAUGUCAUAGUUCCAUGAAAGCCAAAAGUGGCUUUGAUGUUUCUAUGAUAAGGGUUUCGGCCCGUGGCGUCGGGGAUCGCCUGCCCAUUCCGAUGGGCUUCUCCCCAUUUAUU
DNA 1: GAACAACTCAAATGGAAATGAATAT
DNA 2: ATATTCATTTCCATTTGAGTTGTTC
B3: SGN000169 sgRNA ; SGN000169 target (ssRNA ; dsDNA)
RNA: CACAUCUCGAGCAAGACGUUGUCAUAGUUCCAUUAAAGCCAAAAGUGGCUUUGAUGUUUCUAUGAUAAGGGUUUCGACCCGUGGCGUCGGGGAUCGCCUGCCCAUUGAAAUGGGCUUCUCCCCAUUUAUU
DNA 1: CACATCTCGAGCAAGACGTT
DNA 2: AACGTCTTGCTCGAGATGTG
B4: SGN000929 sgRNA ; SGN000929 target (ssRNA ; dsDNA)
RNA: AUCUGGAGGGAACUUACAGCAUAUGGUCAUAGUUCCAUGAAAGCCAAAAGUGGCUUUGAUGUUUCUAUGAUAAGGGUUUCGGCCCGUGGCGUCGGGGAUCGCCUGCCCAUUCCGAUGGGCUUCUCCCCAUUUAUU
DNA 1: ATCTGGAGGGAACTTACAGCATATG
DNA 2: CATATGCTGTAAGTTCCCTCCAGAT
B5: SGN001101 sgRNA ; SGN001101 target (ssRNA ; dsDNA)
RNA: AUAUUUUCUUUAAUGGUGCCAGGCAGUCAUAGUUCCAUUAAAGCCAAAAGUGGCUUUGAUGUUUCUAUGAUAAGGGUUUCGACCCGUGGCGUCGGGGAUCGCCUGCCCAUUGAAAUGGGCUUCUCCCCAU
DNA 1: ATATTTTCTTTAATGGTGCCAGGCA
DNA 2: TGCCTGGCACCATTAAAGAAAATAT

Tests used:
APG30129-L32-nAPG07433.1 = biological target: T1, APG30129-L32-nAPG07433.1; assay: cell_activity; HEK293FT; PAM SEQ 152; conditions: tags: SV40 NLS, 3xFLAG N-term; nucleoplasmin NLS C-term
Method in brief: (§1)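 Editing read out by next-generation sequencing (MiSeq 2×250) of PCR amplicons spanning the target site, analysed for INDELs or % cytosine conversion per position (position 1 nearest PAM).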

[1] = biological target: T2, APG00868.1-L16-nAPG07433.1 (truncated …); assay: cell_activity; HEK293FT; PAM SEQ 152; conditions: tags: SV40 NLS, 3xFLAG N-term; nucleoplasmin NLS C-term
Method in brief: as §1

Row | Binder | activity (APG30129-L32-nAPG07433.1) [% mutated reads] | activity [1] [% mutated reads]
1 | B1 | 5.92 | 
2 | B2 | 3.47 | 
3 | B3 |  | 22.4
4 | B4 |  | 14.6
5 | B5 |  | 20.4
